Patent publication US9434716B2, “Antigen binding proteins” (Glaxo Group Limited, priority 2011, dated 2016)
Entries after “also recorded” stand apart in the source; their conditions may differ.

What was measured:
human SAP [1] = target: T1, human SAP (Homo sapiens, UniProt P02743); assay: Binding of mouse monoclonals to immobilised human SAP in vitro
T1 construct: from tissue; host or cells: natural human SAP, purified
From the text: SAP-E and SAP-K are from two groups of anti-SAP monoclonals, each group having been tested separately for their binding to human SAP in vitro.
SAP-K was selected from among the 6 different, most avidly binding, mouse IgG2a monoclonals, derived by standard techniques from immunization with purified human SAP and a conventional fusion to produce hybridomas which were cloned by routine methods. […] This was the case regardless of whether the human SAP had been directly immobilised on plastic surfaces by non-specific adherence or by covalent attachment, or by the specific calcium dependent binding of SAP to immobilised ligands, whether amyloid fibrils or the small molecule ligand, phosphoethanolamine. SAP-K also bound well to directly immobilised SAP in the presence or absence of calcium, and if the SAP had previously been complexed with CPHPC and then covalently ‘fixed’ in the decameric SAP-CPHPC complex (Pepys, M. B. et al (2002) Targeted pharmacological depletion of serum amyloid P component for treatment of human amyloidosis. Nature, 417: 254-259; Kolstoe, S. E. et al (2009) Molecular dissection of Alzheimer's disease neuropathology by depletion of serum amyloid P component. Proc. Natl. Acad. Sci. USA, 106: 7619-7623). SAP-E also bound well to human SAP in all these different configurations.

native human SAP = target: T2, native human SAP (Homo sapiens, UniProt P02743); assay: Double immunodiffusion in agarose gel; assay type: binding; conditions: isolated pure human SAP and whole human serum
T2 construct: against both isolated pure human SAP and whole human serum; from tissue; host or cells: whole human serum, and isolated pure human SAP

human SAP [2] = target: T1, human SAP; assay: Human SAP binding ELISA, SAP-K and SAP-E hybridoma antibodies; conditions: 1 μg/mL lower density coating of human SAP
Method: 1 μg/mL or 5 μg/mL human SAP was directly immobilised onto an ELISA plate and blocked with 1% BSA/TBS plus 0.05% TWEEN20. Anti-SAP antibodies from purified material were titrated across the plate. Bound antibody was detected by treatment with a horse-radish peroxidase (HRP)-conjugated rabbit-anti-mouse IgG antibody (Dako, P0260). The ELISA was developed using O-phenylenediamine dihydrochloride (OPD) peroxidase substrate (Sigma, P9187).

human SAP [3] = target: T1, human SAP; assay: Biacore kinetics, human SAP captured on immobilised O-phosphoethanolamine; assay type: binding; conditions: CM5 chip, calcium; bivalent analyte model; 25° C.; for comparison only, avidity effect
Method: O-phosphoethanolamine was immobilised on a Biacore CM5 chip by primary amine coupling in accordance with the manufacturer's instructions. Human SAP was then captured on the surface in the presence of calcium chloride, in order to replicate in the Biacore system in vitro, the precise orientation of SAP molecules bound to amyloid fibrils in vivo. Anti SAP antibodies were then passed over this surface at 256, 64, 16, 4, 1 nM and a binding sensorgrams obtained. Analysis was carried out at 25° C. using 4% BSA, 10 mM Tris, 140 mM NaCl, 2 mM CaCl2, 0.05% surfactant P20, 0.02% Na N3, pH 8.0 as running buffer. […] Data generated were double referenced with a buffer injection over the human SAP surface and analyzed using the bivalent analyte model in the Biacore T100 evaluation software.

human SAP [4] = target: T1, human SAP; assay: Competition ELISA with chimeric anti-SAP mAb; assay type: binding; conditions: human SAP coated at 5 μg/mL; purified murine mAb
From the text: A constant concentration of chimeric anti-SAP mAb was mixed with serial diluted (1:1) amounts of mouse anti-SAP mAbs. Plates were washed and the amount of chimeric antibody bound to the immobilised human SAP was detected using goat anti-human Kappa Light chain peroxidase conjugate (Sigma, A7164). The ELISA was developed using O-phenylenediamine dihydrochloride (OPD) peroxidase substrate (Sigma, P9187).

[5] = system: mice with systemic AA amyloidosis; assay: SAP-K in clearing amyloid deposits, mouse AA amyloidosis model (Example 15); assay type: in vivo; conditions: lower doses of 1 mg, 0.5 mg and 0.1 mg per mouse
Method: AA amyloidosis was induced and confirmed in wild-type C57BL/6 mice as detailed in Example 10 above. After loading the amyloid deposits with human SAP also detailed in Example 10, groups of mice were treated with 50 mg per mouse of total IgG as the whole IgG fraction (batch 2866) of the sheep polyclonal anti-human SAP antiserum providing a dose of 7 mg of actual anti-SAP antibody, […], and, as a negative control, isolated purified monoclonal mouse IgG2a antibody specific for an unrelated human antigen and unreactive with either human SAP or any murine antigen. All mice were killed 17 days later for estimation of amyloid load by Congo red staining.

human SAP [6] = target: T1, human SAP; assay: Western blotting and fragment epitope mapping (CNBr, chymotrypsin); assay type: binding
From the text: This is consistent with the kinetic stability and resistance to denaturation of SAP (Manning, M. and Colón, W. (2004) Biochemistry, 43: 11248-11254).
B, SDS-PAGE analysis of SAP cleaved with CNBr. […] These were precisely confirmed by mass spectrometry. […] C, SDS-PAGE analysis of SAP digested with chymotrypsin. Left panel: Coomassie blue stain; lane 1, untreated control SAP; lane 2, SAP after chymotrypsin digestion, showing the expected major fragments corresponding to residues 1-140 and 145-204. These were precisely confirmed by mass spectrometry. Right panel: Western blot with SAP-E showing intense staining of intact untreated SAP in lanes 1 (500 ng loaded) and 2 (100 ng), and also residual intact SAP in lanes 3 and 4 which contained the chymotrypsin digested SAP at different loadings. Very weak binding of SAP-E to the residue 1-140 fragment is seen only in lane 3 which was most heavily loaded. […] D, Sequence comparison between human SAP (h) and mouse SAP (m) for residues 136-147. Top panel, differences indicated above by residues shown in black in the murine sequence. Bottom panel, position of this extended loop with 140Y at its apex shown in white in the 3D subunit structure of human SAP. The different residues in the murine sequence are shown in black. The grey spheres represent the calcium atoms bound in the ligand binding pocket.

human SAP [7] = target: T1, human SAP; assay: Biacore (BIAcoreX), human SAP covalently immobilised on the chip; assay type: binding; conditions: mean and SD of 3 replicate measurements

T1 sequence (P02743 20-223): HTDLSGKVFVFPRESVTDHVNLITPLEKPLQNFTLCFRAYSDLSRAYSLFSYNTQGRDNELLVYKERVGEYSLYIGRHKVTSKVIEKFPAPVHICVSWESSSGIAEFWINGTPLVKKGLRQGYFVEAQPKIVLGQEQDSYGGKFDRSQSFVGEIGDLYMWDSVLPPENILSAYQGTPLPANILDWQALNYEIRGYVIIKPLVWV
T2 sequence (P02743 20-223): as above

B1: SAP-K: mouse IgG2a monoclonal anti-human SAP antibody, VH SEQ ID NO:17, VL SEQ ID NO:19 (antibody, V domains shown)
VH: QVQLQQPGAELIKPGASVKLSCKASGYTFTSYWMHWVKQRPGQGLEWIGMIHPNSVNTNYNEKFKSKATLTVDKSSSTAYMQLNSLTSEDSAVYYCARRNDYYWYFDVWGTGTTVTVSS
VL: DIVMTQSQKFMSTSVGDRVSVTCKASQNVNSNVAWYQQKPGQSPKALIYSASYRYSGVPDRFTGSGSGTDFTLTITNVQSEDLAEYFCQQCNNYPFTFGSGTKLEIK
In the case of B1, the “binding to human SAP in vitro” value (human SAP [1]; compared within the group of monoclonals) is reported as “strongest binding to SAP, within their groups; also recorded: greatest binding to immobilised human SAP”, the “binding to immobilised human SAP” value (human SAP [1]; human SAP sparsely available, plates coated with 1 μg/ml) is reported as “much more SAP-K than SAP-E became bound” and the “binding to native human SAP (immunoprecipitation)” value (native human SAP) is reported as “bound apparently equally well to native human SAP”. For the same molecule, the “binding to the immobilised human SAP” value (human SAP [2]) was “greater binding than the SAP-E”, the ka (human SAP [3]) was 300000 M⁻¹ s⁻¹ and the kd (human SAP [3]) was 0.000219 s⁻¹. For the same molecule, the “competition with SAP-E chimera” value (human SAP [4]) was “no competition”, the “effect on amyloid deposits” value [5] was “no significant effect” and the “binding to native human SAP in western blotting” value (human SAP [6]; after agarose gel electrophoresis in physiological buffers) was “bound”. For the same molecule, the “binding to human SAP in western blotting from reduced SDS-PAGE” value (human SAP [6]; denatured human SAP) was “only recognises native human SAP”, the ka (human SAP [7]) was 3.18 ± 5 × 10^4 M^−1 sec^−1 and the kd (human SAP [7]) was 1.7 ± 0.9 × 10^−5 sec^−1.
